Assay results taken from US20250042994A1 (HAINAN SIMCERE ZAIMING PHARMACEUTICAL, published 2025).
Changes are numbered by the printed parent chain. Each block holds one binder with its values, some of them ahead of it.

Tests used:
murine CD19 protein = target: T1, murine CD19 protein (murine, UniProt P25918 17-287, limits assumed); test: ELISA
T1 construct: bought protein; also called commercial murine CD19
T1 sequence (looked up): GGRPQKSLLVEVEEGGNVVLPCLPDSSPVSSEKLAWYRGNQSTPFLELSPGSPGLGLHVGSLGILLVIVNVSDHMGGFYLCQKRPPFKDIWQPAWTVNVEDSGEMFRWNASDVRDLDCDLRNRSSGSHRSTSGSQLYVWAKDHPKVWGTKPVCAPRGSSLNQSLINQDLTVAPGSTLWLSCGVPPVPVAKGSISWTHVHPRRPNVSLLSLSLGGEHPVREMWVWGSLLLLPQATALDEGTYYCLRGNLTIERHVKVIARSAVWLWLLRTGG
Description: Human CD19-his protein (purchased from ACROBiosystems, catalog number: CD9-H52H2) was diluted with PBS to a final concentration of 4 μg/mL, and then added to a 96-well ELISA plate at 100 μl/well. The plate was sealed with a plastic film and incubated overnight at 4° C., the plate was washed 2 times with PBS the next day, and then a blocking solution [PBS+2% (w/w) BSA] was added for blocking at room temperature for 2 h. The blocking solution was poured off, and 100 nM gradiently diluted CD19 chimeric antibody or control antibody was added at 50 μl/well. After incubation at 37° C. for 2 h, the plate was washed 3 times with PBS. […] TMB substrate was added at 50 μl/well, and incubated at room temperature for 10 min, and then a stop solution (1.0 N HCl) was added at 50 μl/well. The OD450 nm values were read by an ELISA microplate reader (Multimode Plate Reader, EnSight, purchased from Perkin Elmer).
In order to detect the species cross-binding activity of the chimeric antibodies, an ELISA plate was coated with commercial murine CD19 (ACROBiosystems, catalog number: 50510-M08H) and monkey CD19 (ACROBiosystems, catalog number: 90051-C08H), respectively, and the ELISA detection was performed according to the method in example 5.1. […]

[1] = target: T2, human CD19 exon1-3-his protein (human, UniProt P15391 20-186, limits assumed); test: ELISA, coated at 2 ug/mL
T2 construct: made in HEK293E cells; also called membrane-distal end; not shown: His tag
T2 sequence (looked up): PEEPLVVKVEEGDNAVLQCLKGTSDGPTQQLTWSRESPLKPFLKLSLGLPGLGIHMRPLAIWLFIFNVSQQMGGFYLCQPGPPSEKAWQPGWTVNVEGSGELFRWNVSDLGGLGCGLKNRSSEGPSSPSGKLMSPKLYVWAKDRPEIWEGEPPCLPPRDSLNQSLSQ

binding result (murine CD19 protein): no binding
binding result [1]: no binding
B1: F3.121.4-L1H2 (antibody, mouse IgG1, kappa, V domains shown)
VH: EVQLVQSGAEVKKPGASVKVSCKASGYTFTNYWMHWVRQAPGQGLEWMGEIDPSDNYANYNQEFQGRVTITVDKSASTAYMELSSLRSEDTAVYYCARHDGYFGALDYWGQGTTVTVSS
VL: EIVLTQSPATLSLSPGERATLSCSASSSISSNYLHWYQQKPGQAPRFLIYRTSNLASGIPARFSGSGSGTDFTLTISSLEPEDFAVYYCQQASSIPRMFTFGQGTKLEIKR
notes: murine IgG1 constant regions; also called humanized antibody of F3.121.4

binding result (murine CD19 protein): no binding
binding result [1]: no binding
B2: F3.121.4-L1H3 (antibody, mouse IgG1, kappa)
heavy: EVQLVQSGAEVKKPGASVKVSCKASGYTFTNYWMHWVRQRPGQGLEWMGEIDPSDNYANYNQEFQGRVTITVDKSASTAYMELSSLRSEDTAVYYCARHDGYFGALDYWGQGTTVTVSSAKTTPPSVYPLAPGSAAQTNSMVTLGCLVKGYFPEPVTVTWNSGSLSSGVHTFPAVLQSDLYTLSSSVTVPSSTWPSETVTCNVAHPASSTKVDKKIVPRDCGCKPCICTVPEVSSVFIFPPKPKDVLTITLTPKVTCVVVDISKDDPEVQFSWFVDDVEVHTAQTQPREEQFNSTFRSVSELPIMHQDWLNGKEFKCRVNSAAFPAPIEKTISKTKGRPKAPQVYTIPPPKEQMAKDKVSLTCMITDFFPEDITVEWQWNGQPAENYKNTQPIMDTDGSYFVYSKLNVQKSNWEAGNTFTCSVLHEGLHNHHTEKSLSHSPGK
light: EIVLTQSPATLSLSPGERATLSCSASSSISSNYLHWYQQKPGQAPRFLIYRTSNLASGIPARFSGSGSGTDFTLTISSLEPEDFAVYYCQQASSIPRMFTFGQGTKLEIKRADAAPTVSIFPPSSEQLTSGGASVVCFLNNFYPKDINVKWKIDGSERQNGVLNSWTDQDSKDSTYSMSSTLTLTKDEYERHNSYTCEATHKTSTSPIVKSFNRNEC
notes: as for B1

binding result (murine CD19 protein): no binding
binding result [1]: no binding
B3: F3.121.4-L1H1 (antibody, mouse IgG1, kappa, V domains shown)
VH: B1 VH with G44R
VL: B1 VL
notes: as for B1
